Test results: article PMC4239642, “trans-Acting Arginine Residues in the AAA+ Chaperone ClpB Allosterically Regulate the Activity through Inter- and Intradomain Communication*” (The Journal of Biological Chemistry, 2014)

B1: full-length ClpB P221C (natural protein, Thermus thermophilus, UniProt Q9RA63 1-854, looked up)
chain: MNLERWTQAAREALAQAQVLAQRMKHQAIDLPHLWAVLLKDERSLAWRLLEKAGADPKALKELQERELARLPKVEGAEVGQYLTSRLSGALNRAEALMEELKDRYVAVDTLVLALAEATPGLPGLEALKGALKELRGGRTVQTEHAESTYNALEQYGIDLTRLAAEGKLDPVIGRDEEIRRVIQILLRRTKNNPVLIGEPGVGKTAIVEGLAQRIVKGDVCEGLKGKRIVSLQMGSLLAGAKYRGEFEERLKAVIQEVVQSQGEVILFIDELHTVVGAGKAEGAVDAGNMLKPALARGELRLIGATTLDEYREIEKDPALERRFQPVYVDEPTVEETISILRGLKEKYEVHHGVRISDSAIIAAATLSHRYITERRLPDKAIDLIDEAAARLRMALESAPEEIDALERKKLQLEIEREALKKEKDPDSQERLKAIEAEIAKLTEEIAKLRAEWEREREILRKLREAQHRLDEVRREIELAERQYDLNRAAELRYGELPKLEAEVEALSEKLRGARFVRLEVTEEDIAEIVSRWTGIPVSKLLEGEREKLLRLEEELHKRVVGQDEAIRAVADAIRRARAGLKDPNRPIGSFLFLGPTGVGKTELAKTLAATLFDTEEAMIRIDMTEYMEKHAVSRLIGAPPGYVGYEEGGQLTEAVRRRPYSVILFDEIEKAHPDVFNILLQILDDGRLTDSHGRTVDFRNTVIILTSNLGSPLILEGLQKGWPYERIRDEVFKVLQQHFRPEFLNRLDEIVVFRPLTKEQIRQIVEIQLSYLRARLAEKRISLELTEAAKDFLAERGYDPVFGARPLRRVIQRELETPLAQKILAGEVKEGDRVQVDVGPAGLVFAVPARVEA
notes: ClpB from Thermus thermophilus, full-length protein; source: E. coli BL21 (DE3) RIL, purified
B2: ClpB NBD1-M wild type (domain or fragment)
chain: not shown
notes: ClpB from Thermus thermophilus, NBD1 and M-domain, amino acids 141-534; also called unlinked NBD1-M wild type; ClpB construct comprising residues 141-534; source: E. coli BL21 (DE3) RIL, purified
B3: ClpB NBD1-M R323A (domain or fragment)
chain: not shown
notes: ClpB from Thermus thermophilus, NBD1 and M-domain, amino acids 141-534; also called single mutant R323A; source: E. coli BL21 (DE3) RIL, purified
B4: ClpB NBD1-M Q184C (domain or fragment)
chain: not shown
notes: ClpB from Thermus thermophilus, NBD1 and M-domain, amino acids 141-534; source: E. coli BL21 (DE3) RIL, purified
B5: ClpB NBD1-M R322A/R323A (domain or fragment)
chain: not shown
notes: ClpB from Thermus thermophilus, NBD1 and M-domain, amino acids 141-534; also called double mutant; source: E. coli BL21 (DE3) RIL, purified
B6: ClpB NBD1-M P221C (domain or fragment, Thermus thermophilus, UniProt Q9RA63 141-534, looked up)
chain: VQTEHAESTYNALEQYGIDLTRLAAEGKLDPVIGRDEEIRRVIQILLRRTKNNPVLIGEPGVGKTAIVEGLAQRIVKGDVCEGLKGKRIVSLQMGSLLAGAKYRGEFEERLKAVIQEVVQSQGEVILFIDELHTVVGAGKAEGAVDAGNMLKPALARGELRLIGATTLDEYREIEKDPALERRFQPVYVDEPTVEETISILRGLKEKYEVHHGVRISDSAIIAAATLSHRYITERRLPDKAIDLIDEAAARLRMALESAPEEIDALERKKLQLEIEREALKKEKDPDSQERLKAIEAEIAKLTEEIAKLRAEWEREREILRKLREAQHRLDEVRREIELAERQYDLNRAAELRYGELPKLEAEVEALSEKLRGARFVRLEVTEEDIAEIVSRWT
notes: as for B4
B7: cross-linked NBD1-M dimer wild-type (P221C/M394C disulfide) (complex)
chain 1: B6 chain
chain 2: not shown
modifications: intermolecular disulfide bond between P221C of this chain and M394C of the other chain | intermolecular disulfide bond between M394C of this chain and P221C of the other chain
notes: ClpB from Thermus thermophilus, NBD1 and M-domain, amino acids 141-534; also called cross-linked wild-type dimer; P221C/M394C dimer; source: E. coli BL21 (DE3) RIL, purified; the two cysteine variants oxidised with copper phenanthroline, dimer separated on Superdex 200
B8: ClpB NBD1-M R322A (domain or fragment)
chain: not shown
notes: ClpB from Thermus thermophilus, NBD1 and M-domain, amino acids 141-534; also called single mutant R322A; source: E. coli BL21 (DE3) RIL, purified

Key:
[1] = molecular target: T1, full-length ClpB M394C (Thermus thermophilus, UniProt Q9RA63 1-854, M394C); test: cross-linking; intermolecular disulfide between two single-cysteine variants, 50 μM each, 50 μM copper phenanthroline, 2 mM ADP, 50 mM Tris/HCl pH 7.5, 50 mM KCl, 5 mM MgCl2, 1 h at 37 °C; dimer separated on Superdex 200 26/60, non-reducing SDS-PAGE; conditions: both partners purified
T1 construct: ClpB from Thermus thermophilus, full-length protein; source: E. coli BL21 (DE3) RIL, purified

[2] = molecular target: the molecule itself; test: dynamic light scattering; 1–30 μM protein (monomeric units) in buffer A with 2 mM ATP and an ATP-regenerating system (phosphoenolpyruvate, pyruvate kinase); self-association
[3] = molecular target: T2, ClpB NBD1-M A390C (Thermus thermophilus, UniProt Q9RA63 141-534, A390C); test: cross-linking; intermolecular disulfide between two single-cysteine variants, 50 μM each, 50 μM copper phenanthroline, 2 mM ADP, 50 mM Tris/HCl pH 7.5, 50 mM KCl, 5 mM MgCl2, 1 h at 37 °C; dimer separated on Superdex 200 26/60, non-reducing SDS-PAGE; conditions: both partners purified
T2 construct: ClpB from Thermus thermophilus, NBD1 and M-domain, amino acids 141-534; source: E. coli BL21 (DE3) RIL, purified

[4] = molecular target: T3, ClpB NBD1-M M394C (Thermus thermophilus, UniProt Q9RA63 141-534, M394C); test: as above; conditions: both partners purified
T3 construct: ClpB from Thermus thermophilus, NBD1 and M-domain, amino acids 141-534; source: E. coli BL21 (DE3) RIL, purified

[5] = molecular target: the molecule itself; test: SEC-MALS; Superdex 200 10/300 GL with multiangle static light scattering (SLS), buffer A (50 mM Tris/HCl pH 7.5, 50 mM KCl, 5 mM MgCl2, 2 mM EDTA); running buffer nucleotide-free or with 2 mM ADP or 2 mM ATP; 40 μl of 100 μM injected, about 2 μM at the detector; self-association induced by nucleotide

Binder | stoichiometry N [2] | also measured
B1 | – | binding result [1]: binds
B2 | 3 | –
B3 | 2 | –
B4 | – | binding result [3]: binds
B5 | 2 | –
B6 | – | binding result [4]: binds
B7 | – | stoichiometry N [5]: ~4 NBD1-M subunits (two cross-linked dimers)
B8 | 2 | –
